Source: the RNAGym collection of RNA variant scans (doi:10.1021/acssynbio.7b00057)

B1: Pistol ribozyme (parent)
chain: GGGUCGUUGUUCCAUAAUCGCGUGGAUAUGGCACGCAAGUUUCUACCGGGCACCGUAAAUGUCCGACUGGAGCCGUUCGGGCGGCUAUAAACAGACCUCAGGCCCGAAGCGUGGCGGCACCUGCCGCCGGUGGUAAAAAAGAUCGGAAGAGCACACGUCU

Variants of: B1
Assay: aptazyme ON/OFF ratio, guanine; higher = stronger switching; co-transcriptional cleavage with and without guanine

Row | Variant | aptazyme ON/OFF ratio
1 | GGGUCGUUGAAAAAUAAUCGCGUGGAUAUGGCACGCAAGUUUCUACCGGGCACCGUAAAUGUCCGACUGGAGCCGUUCGGGCGGCUAUAAACAGACCUCAGGCCCGAAGCGUGGCGGCACCUGCCGCCGGUGGUAAAAAAGAUCGGAAGAGCACACGUCU | 1.39
2 | GGGUCGUUGAAAGAUAAUCGCGUGGAUAUGGCACGCAAGUUUCUACCGGGCACCGUAAAUGUCCGACUGGAGCCGUUCGGGCGGCUAUAAACAGACCUCAGGCCCGAAGCGUGGCGGCACCUGCCGCCGGUGGUAAAAAAGAUCGGAAGAGCACACGUCU | 1.18
3 | GGGUCGUUGAAAUAUAAUCGCGUGGAUAUGGCACGCAAGUUUCUACCGGGCACCGUAAAUGUCCGACUGGAGCCGUUCGGGCGGCUAUAAACAGACCUCAGGCCCGAAGCGUGGCGGCACCUGCCGCCGGUGGUAAAAAAGAUCGGAAGAGCACACGUCU | 1.47
4 | GGGUCGUUGAUCGAUAAUCGCGUGGAUAUGGCACGCAAGUUUCUACCGGGCACCGUAAAUGUCCGACUGGAGCCGUUCGGGCGGCUAUAAACAGACCUCAGGCCCGAAGCGUGGCGGCACCUGCCGCCGGUGGUAAAAAAGAUCGGAAGAGCACACGUCU | 1.1
5 | GGGUCGUUGAUCAAUAAUCGCGUGGAUAUGGCACGCAAGUUUCUACCGGGCACCGUAAAUGUCCGACUGGAGCCGUUCGGGCGGCUAUAAACAGACCUCAGGCCCGAAGCGUGGCGGCACCUGCCGCCGGUGGUAAAAAAGAUCGGAAGAGCACACGUCU | 1.11
6 | GGGUCGUUGAUCUAUAAUCGCGUGGAUAUGGCACGCAAGUUUCUACCGGGCACCGUAAAUGUCCGACUGGAGCCGUUCGGGCGGCUAUAAACAGACCUCAGGCCCGAAGCGUGGCGGCACCUGCCGCCGGUGGUAAAAAAGAUCGGAAGAGCACACGUCU | 1.08
7 | GGGUCGUUGAUUGAUAAUCGCGUGGAUAUGGCACGCAAGUUUCUACCGGGCACCGUAAAUGUCCGACUGGAGCCGUUCGGGCGGCUAUAAACAGACCUCAGGCCCGAAGCGUGGCGGCACCUGCCGCCGGUGGUAAAAAAGAUCGGAAGAGCACACGUCU | 1.33
8 | GGGUCGUUGAUUAAUAAUCGCGUGGAUAUGGCACGCAAGUUUCUACCGGGCACCGUAAAUGUCCGACUGGAGCCGUUCGGGCGGCUAUAAACAGACCUCAGGCCCGAAGCGUGGCGGCACCUGCCGCCGGUGGUAAAAAAGAUCGGAAGAGCACACGUCU | 1.3
9 | GGGUCGUUGAUUUAUAAUCGCGUGGAUAUGGCACGCAAGUUUCUACCGGGCACCGUAAAUGUCCGACUGGAGCCGUUCGGGCGGCUAUAAACAGACCUCAGGCCCGAAGCGUGGCGGCACCUGCCGCCGGUGGUAAAAAAGAUCGGAAGAGCACACGUCU | 1.54
10 | GGGUCGUUGAUCCAUAAUCGCGUGGAUAUGGCACGCAAGUUUCUACCGGGCACCGUAAAUGUCCGACUGGAGCCGUUCGGGCGGCUAUAAACAGACCUCAGGCCCGAAGCGUGGCGGCACCUGCCGCCGGUGGUAAAAAAGAUCGGAAGAGCACACGUCU | 1.15
11 | GGGUCGUUGAUAUAUAAUCGCGUGGAUAUGGCACGCAAGUUUCUACCGGGCACCGUAAAUGUCCGACUGGAGCCGUUCGGGCGGCUAUAAACAGACCUCAGGCCCGAAGCGUGGCGGCACCUGCCGCCGGUGGUAAAAAAGAUCGGAAGAGCACACGUCU | 1.31
12 | GGGUCGUUGAUAAAUAAUCGCGUGGAUAUGGCACGCAAGUUUCUACCGGGCACCGUAAAUGUCCGACUGGAGCCGUUCGGGCGGCUAUAAACAGACCUCAGGCCCGAAGCGUGGCGGCACCUGCCGCCGGUGGUAAAAAAGAUCGGAAGAGCACACGUCU | 1.22
13 | GGGUCGUUGAUAGAUAAUCGCGUGGAUAUGGCACGCAAGUUUCUACCGGGCACCGUAAAUGUCCGACUGGAGCCGUUCGGGCGGCUAUAAACAGACCUCAGGCCCGAAGCGUGGCGGCACCUGCCGCCGGUGGUAAAAAAGAUCGGAAGAGCACACGUCU | 1.19
14 | GGGUCGUUGAUUCAUAAUCGCGUGGAUAUGGCACGCAAGUUUCUACCGGGCACCGUAAAUGUCCGACUGGAGCCGUUCGGGCGGCUAUAAACAGACCUCAGGCCCGAAGCGUGGCGGCACCUGCCGCCGGUGGUAAAAAAGAUCGGAAGAGCACACGUCU | 1.16
15 | GGGUCGUUGAUGCAUAAUCGCGUGGAUAUGGCACGCAAGUUUCUACCGGGCACCGUAAAUGUCCGACUGGAGCCGUUCGGGCGGCUAUAAACAGACCUCAGGCCCGAAGCGUGGCGGCACCUGCCGCCGGUGGUAAAAAAGAUCGGAAGAGCACACGUCU | 1.65
16 | GGGUCGUUGAUACAUAAUCGCGUGGAUAUGGCACGCAAGUUUCUACCGGGCACCGUAAAUGUCCGACUGGAGCCGUUCGGGCGGCUAUAAACAGACCUCAGGCCCGAAGCGUGGCGGCACCUGCCGCCGGUGGUAAAAAAGAUCGGAAGAGCACACGUCU | 1.62
17 | GGGUCGUUGAACAAUAAUCGCGUGGAUAUGGCACGCAAGUUUCUACCGGGCACCGUAAAUGUCCGACUGGAGCCGUUCGGGCGGCUAUAAACAGACCUCAGGCCCGAAGCGUGGCGGCACCUGCCGCCGGUGGUAAAAAAGAUCGGAAGAGCACACGUCU | 1.31
18 | GGGUCGUUGAACUAUAAUCGCGUGGAUAUGGCACGCAAGUUUCUACCGGGCACCGUAAAUGUCCGACUGGAGCCGUUCGGGCGGCUAUAAACAGACCUCAGGCCCGAAGCGUGGCGGCACCUGCCGCCGGUGGUAAAAAAGAUCGGAAGAGCACACGUCU | 1.35

Row | Variant | aptazyme ON/OFF ratio
19 | GGGUCGUUGAACGAUAAUCGCGUGGAUAUGGCACGCAAGUUUCUACCGGGCACCGUAAAUGUCCGACUGGAGCCGUUCGGGCGGCUAUAAACAGACCUCAGGCCCGAAGCGUGGCGGCACCUGCCGCCGGUGGUAAAAAAGAUCGGAAGAGCACACGUCU | 1.12
20 | GGGUCGUUGACCCAUAAUCGCGUGGAUAUGGCACGCAAGUUUCUACCGGGCACCGUAAAUGUCCGACUGGAGCCGUUCGGGCGGCUAUAAACAGACCUCAGGCCCGAAGCGUGGCGGCACCUGCCGCCGGUGGUAAAAAAGAUCGGAAGAGCACACGUCU | 1.05
21 | GGGUCGUUGAACCAUAAUCGCGUGGAUAUGGCACGCAAGUUUCUACCGGGCACCGUAAAUGUCCGACUGGAGCCGUUCGGGCGGCUAUAAACAGACCUCAGGCCCGAAGCGUGGCGGCACCUGCCGCCGGUGGUAAAAAAGAUCGGAAGAGCACACGUCU | 1.73
22 | GGGUCGUUGACACAUAAUCGCGUGGAUAUGGCACGCAAGUUUCUACCGGGCACCGUAAAUGUCCGACUGGAGCCGUUCGGGCGGCUAUAAACAGACCUCAGGCCCGAAGCGUGGCGGCACCUGCCGCCGGUGGUAAAAAAGAUCGGAAGAGCACACGUCU | 1.16
23 | GGGUCGUUGACAGAUAAUCGCGUGGAUAUGGCACGCAAGUUUCUACCGGGCACCGUAAAUGUCCGACUGGAGCCGUUCGGGCGGCUAUAAACAGACCUCAGGCCCGAAGCGUGGCGGCACCUGCCGCCGGUGGUAAAAAAGAUCGGAAGAGCACACGUCU | 1.28
24 | GGGUCGUUGACAAAUAAUCGCGUGGAUAUGGCACGCAAGUUUCUACCGGGCACCGUAAAUGUCCGACUGGAGCCGUUCGGGCGGCUAUAAACAGACCUCAGGCCCGAAGCGUGGCGGCACCUGCCGCCGGUGGUAAAAAAGAUCGGAAGAGCACACGUCU | 1.17
25 | GGGUCGUUGAAUAAUAAUCGCGUGGAUAUGGCACGCAAGUUUCUACCGGGCACCGUAAAUGUCCGACUGGAGCCGUUCGGGCGGCUAUAAACAGACCUCAGGCCCGAAGCGUGGCGGCACCUGCCGCCGGUGGUAAAAAAGAUCGGAAGAGCACACGUCU | 1.54
26 | GGGUCGUUGAAUGAUAAUCGCGUGGAUAUGGCACGCAAGUUUCUACCGGGCACCGUAAAUGUCCGACUGGAGCCGUUCGGGCGGCUAUAAACAGACCUCAGGCCCGAAGCGUGGCGGCACCUGCCGCCGGUGGUAAAAAAGAUCGGAAGAGCACACGUCU | 1.35
27 | GGGUCGUUGAAUUAUAAUCGCGUGGAUAUGGCACGCAAGUUUCUACCGGGCACCGUAAAUGUCCGACUGGAGCCGUUCGGGCGGCUAUAAACAGACCUCAGGCCCGAAGCGUGGCGGCACCUGCCGCCGGUGGUAAAAAAGAUCGGAAGAGCACACGUCU | 1.69
28 | GGGUCGUUGAAGGAUAAUCGCGUGGAUAUGGCACGCAAGUUUCUACCGGGCACCGUAAAUGUCCGACUGGAGCCGUUCGGGCGGCUAUAAACAGACCUCAGGCCCGAAGCGUGGCGGCACCUGCCGCCGGUGGUAAAAAAGAUCGGAAGAGCACACGUCU | 1.3
29 | GGGUCGUUGAAGUAUAAUCGCGUGGAUAUGGCACGCAAGUUUCUACCGGGCACCGUAAAUGUCCGACUGGAGCCGUUCGGGCGGCUAUAAACAGACCUCAGGCCCGAAGCGUGGCGGCACCUGCCGCCGGUGGUAAAAAAGAUCGGAAGAGCACACGUCU | 1.23
30 | GGGUCGUUGAAGAAUAAUCGCGUGGAUAUGGCACGCAAGUUUCUACCGGGCACCGUAAAUGUCCGACUGGAGCCGUUCGGGCGGCUAUAAACAGACCUCAGGCCCGAAGCGUGGCGGCACCUGCCGCCGGUGGUAAAAAAGAUCGGAAGAGCACACGUCU | 1.42
31 | GGGUCGUUGAAGCAUAAUCGCGUGGAUAUGGCACGCAAGUUUCUACCGGGCACCGUAAAUGUCCGACUGGAGCCGUUCGGGCGGCUAUAAACAGACCUCAGGCCCGAAGCGUGGCGGCACCUGCCGCCGGUGGUAAAAAAGAUCGGAAGAGCACACGUCU | 1.83
32 | GGGUCGUUGAAUCAUAAUCGCGUGGAUAUGGCACGCAAGUUUCUACCGGGCACCGUAAAUGUCCGACUGGAGCCGUUCGGGCGGCUAUAAACAGACCUCAGGCCCGAAGCGUGGCGGCACCUGCCGCCGGUGGUAAAAAAGAUCGGAAGAGCACACGUCU | 1.64
33 | GGGUCGUUGAAACAUAAUCGCGUGGAUAUGGCACGCAAGUUUCUACCGGGCACCGUAAAUGUCCGACUGGAGCCGUUCGGGCGGCUAUAAACAGACCUCAGGCCCGAAGCGUGGCGGCACCUGCCGCCGGUGGUAAAAAAGAUCGGAAGAGCACACGUCU | 1.18
34 | GGGUCGUUGAUGGAUAAUCGCGUGGAUAUGGCACGCAAGUUUCUACCGGGCACCGUAAAUGUCCGACUGGAGCCGUUCGGGCGGCUAUAAACAGACCUCAGGCCCGAAGCGUGGCGGCACCUGCCGCCGGUGGUAAAAAAGAUCGGAAGAGCACACGUCU | 1.17
35 | GGGUCGUUGAUGAAUAAUCGCGUGGAUAUGGCACGCAAGUUUCUACCGGGCACCGUAAAUGUCCGACUGGAGCCGUUCGGGCGGCUAUAAACAGACCUCAGGCCCGAAGCGUGGCGGCACCUGCCGCCGGUGGUAAAAAAGAUCGGAAGAGCACACGUCU | 1.4
36 | GGGUCGUUGAUGUAUAAUCGCGUGGAUAUGGCACGCAAGUUUCUACCGGGCACCGUAAAUGUCCGACUGGAGCCGUUCGGGCGGCUAUAAACAGACCUCAGGCCCGAAGCGUGGCGGCACCUGCCGCCGGUGGUAAAAAAGAUCGGAAGAGCACACGUCU | 1.47
